Measured values: paper doi:10.1101/2023.04.03.535362 (bioRxiv, 2023)

T1: RAD52 FL (human, UniProt P43351 1-418)
T1 sequence: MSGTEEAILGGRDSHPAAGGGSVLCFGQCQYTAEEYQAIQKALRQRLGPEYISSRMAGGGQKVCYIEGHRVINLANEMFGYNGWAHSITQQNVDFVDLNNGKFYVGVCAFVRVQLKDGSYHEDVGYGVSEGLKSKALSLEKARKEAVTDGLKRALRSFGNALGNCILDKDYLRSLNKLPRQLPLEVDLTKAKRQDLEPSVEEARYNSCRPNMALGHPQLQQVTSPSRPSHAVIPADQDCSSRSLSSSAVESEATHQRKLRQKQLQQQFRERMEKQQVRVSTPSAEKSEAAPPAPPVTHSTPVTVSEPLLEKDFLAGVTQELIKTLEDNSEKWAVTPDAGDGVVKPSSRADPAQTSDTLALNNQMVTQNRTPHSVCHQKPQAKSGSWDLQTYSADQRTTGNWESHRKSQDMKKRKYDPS

B1: Histidine-tagged human RAD52 N-terminal domain (1-212) (domain or fragment, UniProt P43351 1-212, looked up)
chain: MSGTEEAILGGRDSHPAAGGGSVLCFGQCQYTAEEYQAIQKALRQRLGPEYISSRMAGGGQKVCYIEGHRVINLANEMFGYNGWAHSITQQNVDFVDLNNGKFYVGVCAFVRVQLKDGSYHEDVGYGVSEGLKSKALSLEKARKEAVTDGLKRALRSFGNALGNCILDKDYLRSLNKLPRQLPLEVDLTKAKRQDLEPSVEEARYNSCRPNM
B2: dT30 ssDNA (ssDNA)
DNA: TTTTTTTTTTTTTTTTTTTTTTTTTTTTTT

How the values were obtained:
dynamic light scattering = biological target: the molecule itself; test: dynamic light scattering
RAD52 FL = biological target: T1, RAD52 FL; test: fluorescence polarization

Binder | stoichiometry N (dynamic light scattering) | Kd (RAD52 FL) [nM]
B1 | ~11 | 
B2 |  | 37.2 ± 0.4
